Substitutions are numbered along the chain they refer to. Numbers in names are those of the source. Like-named read-outs stand apart in the source and are kept apart here.
T1: ILK ankyrin repeat domain W110A (human, UniProt Q13418 1-174, W110A)
T1 sequence (looked up): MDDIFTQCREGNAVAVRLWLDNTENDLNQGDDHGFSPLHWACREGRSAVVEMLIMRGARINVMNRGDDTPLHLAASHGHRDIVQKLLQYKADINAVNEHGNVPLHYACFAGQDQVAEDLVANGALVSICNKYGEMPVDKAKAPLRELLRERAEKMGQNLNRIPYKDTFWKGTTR

B1: ILK ankyrin repeat domain (ILK 1-174, from thrombin-cleaved GST-ILK 1-192) (domain or fragment, human, UniProt Q13418 1-174, looked up)
chain: T1 sequence (looked up) with A110W
B2: His-tagged PINCH2 LIM1 (PINCH2 6-68) (domain or fragment, human, UniProt Q7Z4I7-3 6-68, looked up)
chain: ANAVCQRCQARFSPAERIVNSNGELYHEHCFVCAQCFRPFPEGLFYEFEGRKYCEHDFQMLFA
B3: His-tagged PINCH2 LIM1 R12A (domain or fragment, human, UniProt Q7Z4I7-3 6-68, looked up)
chain: B2 chain with R7A
B4: PINCH2 LIM1 domain (PINCH2 6-68), His tag removed (domain or fragment, human, UniProt Q7Z4I7-3 6-68, looked up)
chain: B2 chain
B5: soluble PINCH1 LIM1 domain, His tag removed (domain or fragment)
chain: ASATCERCKGGFAPAEKIVNSNGELYHEQCFVCAQCFQQFPEGLFYEFEGRKYCEHDFQMLFA

Experiments:
[1] = biological target: B4; test: crystal structure
[2] = biological target: T1, ILK ankyrin repeat domain W110A; test: pull-down
[3] = biological target: B1; test: pull-down
[4] = biological target: B1; test: pull-down; remark: listed apart in the source
[5] = biological target: B1; test: pull-down; remark: listed apart in the source

Binder: B1
stoichiometry N [1]: 1

Binder: B2
binding result [2]: binds

Binder: B3
binding result [3]: binds

Binder: B4
IC50 [4]: 4400 nM
IC50 [5]: 2300 nM

Binder: B5
IC50 [5]: 2900 nM

From PMC2841223 (Journal of structural biology, 2009)
